Experiment [1] deals with T1, human TPBG protein, full-length, on the cell surface (human, UniProt Q13641 32-420).
T1 sequence (looked up): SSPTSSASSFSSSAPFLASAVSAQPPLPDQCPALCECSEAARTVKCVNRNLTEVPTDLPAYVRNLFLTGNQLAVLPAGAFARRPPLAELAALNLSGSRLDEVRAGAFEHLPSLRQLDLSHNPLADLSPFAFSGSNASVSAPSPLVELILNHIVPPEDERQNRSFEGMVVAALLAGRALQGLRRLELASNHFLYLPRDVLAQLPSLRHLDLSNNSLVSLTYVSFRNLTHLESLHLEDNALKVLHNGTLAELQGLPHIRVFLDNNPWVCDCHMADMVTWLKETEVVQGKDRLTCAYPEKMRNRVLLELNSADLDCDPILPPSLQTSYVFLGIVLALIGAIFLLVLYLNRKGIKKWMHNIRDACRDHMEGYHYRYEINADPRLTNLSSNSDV
The experiment in a line: cell-based or functional assay.

Experiment [2] concerns the target T1, human TPBG protein, full-length, on the …. As to the kind of experiment: cell-based or functional assay. This is another data set of the same source.
Experiment [3] deals with T2, cynomolgus TPBG protein, full-length, on the cell surface (cynomolgus, UniProt Q4R8Y9 35-420).
T2 construct: whole, on cells; also called cTPBG; CHOk1-cTPBG
T2 sequence (looked up): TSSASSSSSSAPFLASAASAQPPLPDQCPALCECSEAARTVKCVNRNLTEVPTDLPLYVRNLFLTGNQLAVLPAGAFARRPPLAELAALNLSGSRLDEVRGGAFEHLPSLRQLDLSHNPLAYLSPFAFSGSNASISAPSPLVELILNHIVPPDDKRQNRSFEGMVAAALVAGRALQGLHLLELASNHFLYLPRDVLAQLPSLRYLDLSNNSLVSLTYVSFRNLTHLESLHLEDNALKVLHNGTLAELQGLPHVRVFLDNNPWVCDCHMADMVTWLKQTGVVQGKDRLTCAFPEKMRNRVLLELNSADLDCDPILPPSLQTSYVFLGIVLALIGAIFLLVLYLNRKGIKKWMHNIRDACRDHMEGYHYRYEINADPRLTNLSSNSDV
As to the kind of experiment: FACS on CHOK1-cTPBG cells.

Experiment [4] concerns the target T1, human TPBG protein, full-length, on the …. As to the kind of experiment: FACS on CHOK1-hTPBG cells.
The target of another experiment is T3, human TPBG-hFc protein (human, UniProt Q13641 32-355).
T3 construct: range 32-355; Expressed in HEK293 cells, purified on protein A; also called immunogen A; hFc tagged TPBG protein; not shown: human IgG Fc fragment of the pCpC vector
T3 sequence (looked up): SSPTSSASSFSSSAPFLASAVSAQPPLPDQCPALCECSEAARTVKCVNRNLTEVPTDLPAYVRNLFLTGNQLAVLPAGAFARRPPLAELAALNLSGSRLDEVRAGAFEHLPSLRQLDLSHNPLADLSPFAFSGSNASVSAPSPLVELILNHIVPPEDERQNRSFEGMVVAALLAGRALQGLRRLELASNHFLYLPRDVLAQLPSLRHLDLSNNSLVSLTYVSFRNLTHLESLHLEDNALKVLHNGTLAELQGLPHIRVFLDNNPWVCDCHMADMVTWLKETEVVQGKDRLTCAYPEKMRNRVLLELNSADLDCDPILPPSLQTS
As to the kind of experiment: ELISA, coated human TPBG-hFc. The protocol: The purified human TPBG-hFc obtained from step (1) diluting with PBS to a final concentration of 1.0 μg/mL was aliquoted into a 96-well ELISA plate at 100 μL per well, and sealed with a parafilm and incubated at 4° C. overnight. The plate was washed twice with plate washing buffer (PBS containing 0.01% (v/v) Tween 20), and blocked with blocking buffer (PBS containing 0.01% (v/v) Tween 20 and 1% (w/w) BSA) at room temperature for 2 h. The blocking buffer was discarded, and […] per well of the purified antibody TPBG was added. After incubating at 37° C. for 2 h, the plate was washed for three times with plate washing buffer (PBS containing 0.01% (v/v) Tween 20). HRP (horseradish peroxidase)-labeled secondary antibody (purchased from Sigma) was added and incubated at 37° C. for 2 h, and the plate was washed for three times using plate washing buffer (PBS containing 0.01% (v/v) Tween 20). 100 μL of TMB substrate was aliquoted into each well, incubated at room temperature for 30 min, and 100 μL of stop buffer (1.0 N HCl) per well was subsequently added. A_{450 nm} values were read using the ELISA plate reader (SpectraMax 384plus purchased from Molecular Device), and the results were shown in Table 5. […] In Table 5 the IgG control herein is a mice IgG control, the data in the Table are OD_{450 nm} values, and Blank represents the OD_{450 nm} value of PBS buffer in the plate.
The purified humanized TPBG antibody obtained from Embodiment 1 was reacted with human TPBG-hFc, for the method, see (5) Identification of lead antibody in Embodiment 1. The EC50 in Table 11 and Table 12 are calculated according to the OD450 nm value of the h12B12 variants and the h28D4 variants, respectively. […] FIGS. 7A and 7B are the binding reactions of purified humanized h12B12 variants to human TBPG-hFc protein, and FIGS. 8A and 8B are the binding reactions of the purified humanized h28D4 variants to human TBPG-hFc protein.

The target in experiment [5] is T4, human TPBG antigen immobilized on a CM5 chip (human, UniProt Q13641 32-355, limits assumed).
T4 sequence (looked up): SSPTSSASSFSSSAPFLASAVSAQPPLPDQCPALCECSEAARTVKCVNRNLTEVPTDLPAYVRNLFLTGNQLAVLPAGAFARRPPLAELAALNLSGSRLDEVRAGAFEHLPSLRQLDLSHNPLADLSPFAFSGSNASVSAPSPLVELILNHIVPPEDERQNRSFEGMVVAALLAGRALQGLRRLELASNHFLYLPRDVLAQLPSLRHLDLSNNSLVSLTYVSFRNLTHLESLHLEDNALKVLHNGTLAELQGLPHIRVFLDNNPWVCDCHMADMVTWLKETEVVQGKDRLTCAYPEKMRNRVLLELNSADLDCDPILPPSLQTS
The experiment in a line: SPR (Biacore), human TPBG antigen immobilized on CM5 chip. The protocol:
To assess the binding specificity and affinity of the humanized anti-TPBG antibody, Biacore analysis was performed using human TPBG antigen immobilized on a CM5 chip. Biacore technique utilizes the change in the refractive index of surface layer after antibody binding to the TPBG antigen immobilized on the surface layer. The binding was determined by surface plasmon resonance (SPR) through detecting the laser refracted from the surface. Non-specific and specific interactions were distinguished by analysis of signal kinetics binding rate and dissociation rate. Chimeric antibodies 12B12 and 28D4 were used as controls.

Experiment [6] deals with T5, mouse TPBG protein, full-length, on the cell surface (mouse, UniProt Q9Z0L0 32-426).
T5 construct: whole, on cells; also called mTPBG; CHOk1-mTPBG
T5 sequence (looked up): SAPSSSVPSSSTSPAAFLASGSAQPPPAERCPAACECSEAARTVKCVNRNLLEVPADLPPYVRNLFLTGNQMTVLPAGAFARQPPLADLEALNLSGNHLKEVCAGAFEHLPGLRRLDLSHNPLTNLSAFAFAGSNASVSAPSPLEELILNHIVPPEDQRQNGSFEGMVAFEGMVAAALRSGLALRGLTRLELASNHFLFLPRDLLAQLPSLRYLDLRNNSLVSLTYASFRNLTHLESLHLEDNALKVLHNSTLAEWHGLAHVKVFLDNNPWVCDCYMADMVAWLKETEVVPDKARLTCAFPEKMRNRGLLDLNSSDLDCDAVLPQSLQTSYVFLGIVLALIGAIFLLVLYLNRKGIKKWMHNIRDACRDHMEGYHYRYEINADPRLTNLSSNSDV
As to the kind of experiment: FACS on CHO-k1 cells with surface-expressed mouse TPBG, fluorescent secondary antibody, mean fluorescence intensity.

Read-outs that look alike come from different tables or passages of the source.

The values that follow come from patent US20200062856A1 (XDCEXPLORER SHANGHAI, published 2020).

B1: Humanized Antibody 12B12-12-MMAF (antibody, V domains shown)
VH: EVQLVESGGGLVQPGGSLRLSCAASGFTFSNFGMHWVRQAPGKGLEWVSYISSGSTSFYYADTVKGRFTISRDNAKNSLYLQMNSLRDEDTAVYYCARTNSLLRGFFDAWGQGTTVTVSS
VL: DIVLTQTPLSLSVTPGQPASISCRASQSVSSSSYTYLHWYLQKPGQPPQLLIKSASNLESGVPDRFSGSGSGTDFTLKISRVEAEDVGVYYCQHSWEIPLTFGQGTKLEIK
modifications: MC-MMAF on cysteines reduced with TCEP (sites not given), DAR 3.0-5.0 per antibody
For B1, the “IC50 of cell killing, NCI-H1568 cells (CellTiter-Glo, 5 days)” value (from here on “IC50 of cell killing, NCI-H1568 cells”) in experiment [1] turned out to be 0.066 nM. In experiment [2], the “IC50 of cell killing, MDA-MB-468 cells (CellTiter-Glo, 5 days)” value came to 0.06 nM; the “IC50 of cell killing, NCI-H1568 cells” value came out at 0.05 nM; the “IC50 of cell killing, NCI-H1975 cells (CellTiter-Glo, 5 days)” value stood at 0.13 nM.

B2: Humanized Antibody 12B12-15-MMAF (antibody, V domains shown)
VH: EVQLVESGGGVVQPGRSLRLSCAASGFTFSNFGMHWVRQAPGKGLEWVAYISSGSTSFYYADTVKGRFTISRDNSKNTLYLQMNSLRAEDTAVYYCARTNSLLRGFFDAWGQGTTVTVSS
VL: DIVLTQTPLSLSVTPGQPASISCRASQSVSSSSYTYLHWYLQKPGQPPQLLIKSASNLESGVPDRFSGSGSGTDFTLKISRVEAEDVGVYYCQHSWEIPLTFGQGTKLEIK
modifications: MC-MMAF on cysteines reduced with TCEP (sites not given), DAR 3.0-5.0 per antibody
Turning to B2, in experiment [1], the “IC50 of cell killing, NCI-H1568 cells” value is 0.058 nM.

B3: Chimeric antibody 28D4 (antibody, V domains shown)
VH: DVQLVESGGGLVRPGGSLKLSCAASGFTFSNYVMSWARQSPEKRLEWVAEISTGGSHTYYSDTVTGRFTISRDNAKKALYLEMSSLRSEDTAIYYCIMFYYGSSYSMDYWGQGTSVTVSS
VL: DIQMTQSTSSLSASLGDRITISCRASQDIRNYLNWYQQKPDGTVKLLIYHTSRLHSGVPSRFSGSGSGTDYSLTISNLEQEDIATYFCQQGDTLPLTFGAGTRLELK
notes: Mouse variable domains on human IgG1 heavy and human kappa light constant regions; also called c28D4; TPBG chimeric antibody 28D4
Consider B3, for which the EC50 in experiment [3] came out at 0.94 nM. The same molecule returned an EC50 in experiment [4] of 0.33 nM. This molecule also had an EC50 with human TPBG-hFc protein of 0.165 nM. In experiment [5], this molecule returned a Kd of 0.013 nM, a koff of 3.24e-05 s⁻¹ and a kon of 2.5e+06 M⁻¹ s⁻¹. The binding result in experiment [6] is “no binding (tested: 100 nM)”.

B4: Chimeric Antibody 12B12-MMAF (antibody, V domains shown)
VH: DVQLVESGGGLVQPGGSRKLSCAASGFTFSNFGMHWVRQAPEKGLEWVAYISSGSTSFYYADTVKGRFTISRDNPKNTLFLQMTSLRSEDTAMYYCSRTNSLLRGFFDAWGAGTTVTVSS
VL: DIVLTQSPASLAVSLGQRATISCRASQSVSSSSYTYLHWYQQKPGQPPKLLIKSASNLESGVPARFSGTGSGTDFTLNIHPVEEEDTATYYCQHSWEIPLTFGAGTKLELK
modifications: MC-MMAF on cysteines reduced with TCEP (sites not given), DAR 3.0-5.0 per antibody
B4: the “IC50 of cell killing, NCI-H1568 cells” value in experiment [1] turned out to be 0.063 nM.

B5: Humanized antibody 28D4-3 (antibody, V domains shown)
VH: EVQLVESGGGLVKPGGSLRLSCAASGFTFSNYVMSWIRQAPGKGLEWVAEISTGGSHTYYSDTVTGRFTISRDNAKKSLYLQMNSLRAEDTAVYYCIMFYYGSSYSMDYWGQGTTVTVSS
VL: DIQMTQSPSSLSASVGDRVTITCRASQDIRNYLNWYQQKPGKAPKLLIYHTSRLHSGVPSRFSGSGSGTDFTFTISSLQPEDIATYYCQQGDTLPLTFGQGTRLEIK
notes: also called h28D4-3
For the molecule B5, the EC50 in experiment [3] came to 0.62 nM. Moreover, the EC50 in experiment [4] was determined as 0.26 nM. This molecule also yielded an EC50 in the experiment with human TPBG-hFc protein of 0.16 nM. In experiment [5], this molecule returned a Kd of 0.0406 nM, a koff of 4.57e-05 s⁻¹ and a kon of 1.12e+06 M⁻¹ s⁻¹. Also, the binding result in experiment [6] was “no binding (tested: 100 nM)”.

B6: Humanized antibody 28D4-7 (antibody, V domains shown)
VH: EVQLVESGGGLVKPGGSLRLSCAASGFTFSNYVMSWIRQAPGKGLEWVAEISTGGSHTYYSDTVTGRFTISRDNAKKSLYLQMNSLRAEDTAVYYCIMFYYGSSYSMDYWGQGTTVTVSS
VL: DIQMTQSPSSLSASVGDRVTITCRASQDIRNYLNWYQQKPGKAPKLLIYHTSRLHSGVPSRFSGSGSGTDYTFTISSLQPEDIATYYCQQGDTLPLTFGQGTRLEIK
notes: also called h28D4-7
As to B6, in experiment [3], the EC50 was 0.27 nM. The molecule also displayed an EC50 in experiment [4] of 0.37 nM. This molecule also had an EC50 in the experiment with human TPBG-hFc protein of 0.161 nM. In experiment [5], the Kd is 0.0256 nM, the koff was 9.42e-05 s⁻¹ and the kon was 3.68e+06 M⁻¹ s⁻¹. The binding result in experiment [6] was “no binding (tested: 100 nM)”.

B7: Humanized antibody 28D4-4 (antibody, V domains shown)
VH: EVQLVESGGGLVKPGGSLRLSCAASGFTFSNYVMSWARQAPGKRLEWVAEISTGGSHTYYSDTVTGRFTISRDNAKKSLYLQMNSLRAEDTAVYYCIMFYYGSSYSMDYWGQGTTVTVSS
VL: DIQMTQSPSSLSASVGDRVTITCRASQDIRNYLNWYQQKPGKAPKLLIYHTSRLHSGVPSRFSGSGSGTDFTFTISSLQPEDIATYYCQQGDTLPLTFGQGTRLEIK
notes: also called h28D4-4
In the case of B7, in experiment [3], the EC50 came to 0.72 nM. Moreover, in experiment [4], a half-maximal response (EC50) required 0.38 nM. Further, the EC50 with human TPBG-hFc protein came out at 0.147 nM. In experiment [5], this molecule came in with a Kd of 0.0231 nM, a koff of 3.58e-05 s⁻¹ and a kon of 1.55e+06 M⁻¹ s⁻¹. The binding result in experiment [6] is reported as “no binding (tested: 100 nM)”.
